In paper PMC11320721 (Nature structural & molecular biology, 2024):
No end group written: not given here. Me3 = trimethyl (lysine)

Tests used:
[1] = target: T1, PZP domain of JADE1 (JADE1PZP), wild type (human, UniProt Q6IE81 201-373); assay: other fluorescence titration
E215K mutant of JADE1PZP = E215K mutant of JADE1PZP (human, UniProt Q6IE81 201-373, E215K); assay: other fluorescence titration
[2] = target: T1, PZP domain of JADE1 (JADE1PZP), wild …; assay: NMR titration

T1 sequence (Q6IE81 201-373): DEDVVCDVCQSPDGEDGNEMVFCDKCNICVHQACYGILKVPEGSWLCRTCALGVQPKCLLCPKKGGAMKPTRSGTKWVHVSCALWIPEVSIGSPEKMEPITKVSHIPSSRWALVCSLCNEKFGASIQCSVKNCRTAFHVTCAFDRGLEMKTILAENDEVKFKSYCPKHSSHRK
Sequence of E215K mutant of JADE1PZP (Q6IE81 201-373 E215K): as the sequence (Q6IE81 201-373) above, with E15K counted along it

Binder | Kd [1] [µM] | fold decrease in binding affinity against wild type JADE1PZP (E215K mutant of JADE1PZP) [fold] | Kd [2] [µM]
ARTKQTARKSTG (peptide, UniProt P68431 2-13, looked up) [H3_(1–12) peptide (residues 1–12 of H3)] | 0.9 | 3 | –
ARTK(Me3)QTARKSTG (peptide, UniProt P68431 2-13, looked up) [H3K4me3_(1–12) peptide] | – | – | 3000
